Values quoted from earlier work in PMC2706832.
pKd, pKi: −log10 of the molar value.

Legend:
CCL7 (Homo sapiens) = CCL7 (Homo sapiens) (UniProt P80098)
[1] = target: CCL14 9-74 (Homo sapiens) (UniProt Q16627); assay: competition with CCL5
Sequence of CCL14 9-74 (Homo sapiens) (Q16627 9-74): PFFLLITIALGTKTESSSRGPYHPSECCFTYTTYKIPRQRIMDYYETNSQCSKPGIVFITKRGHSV

Sequence of CCR1 (P32246 whole entry): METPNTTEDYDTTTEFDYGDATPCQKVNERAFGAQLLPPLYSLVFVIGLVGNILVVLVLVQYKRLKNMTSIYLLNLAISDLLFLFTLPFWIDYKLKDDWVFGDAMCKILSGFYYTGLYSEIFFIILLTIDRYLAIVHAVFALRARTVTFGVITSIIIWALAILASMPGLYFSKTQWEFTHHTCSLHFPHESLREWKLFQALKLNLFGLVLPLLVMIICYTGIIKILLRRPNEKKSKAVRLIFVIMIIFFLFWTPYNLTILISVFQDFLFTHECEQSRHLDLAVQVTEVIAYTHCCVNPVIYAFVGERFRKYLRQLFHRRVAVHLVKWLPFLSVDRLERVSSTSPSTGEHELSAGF
Sequence of CCL7 (Homo sapiens) (P80098 24-99): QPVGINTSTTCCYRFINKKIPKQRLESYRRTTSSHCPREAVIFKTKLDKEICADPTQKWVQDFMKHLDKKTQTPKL

## CCR1 (from UniProt P32246)
CCL7 (Homo sapiens)
  pKd: 9.00
[1]
  pKi: 10.64
